Measurements taken from article PMC7374715, “Conservation of Cdc14 phosphatase specificity in plant fungal pathogens: implications for antifungal development” (Scientific Reports, 2020).

Key:
[1] = system: O=[N+]([O-])c1ccc(OP(=O)(O)O)cc1; assay: purified protein, by the assay type
[2] = system: Cc1cc(=O)oc2c(F)c(OP(=O)(O)O)c(F)cc12; assay: purified protein, by the assay type
[3] = other: pNPP, 25 mM HEPES pH 7.5, 30 °C, mean of 3 ± SD
[4] = other: DiFMUP, 0.5 nM enzyme, pH 7.5, 30 °C, mean of 3 ± SD

Substance	Km [1, 3] [mM]	kcat [1, 3] [s⁻¹]	kcat/Km [1, 3] [M⁻¹ s⁻¹]	Km [2, 4] [mM]	kcat [2, 4] [s⁻¹]	kcat/Km [2, 4] [M⁻¹ s⁻¹]	Km ([1]; pH 7.5, 30.0 °C) [mM]	Km ([2]; pH 7.5, 30.0 °C) [mM]
CgCdc14 (Colletotrichum gloeosporioides)	30 ± 4	0.6 ± 0.1	20 ± 2	0.078 ± 0.012	7	86000 ± 6100	–	–
MoCdc14 (Pyricularia oryzae 70-15)	–	–	–	–	–	–	25 ± 1	0.044 ± 0.011
